# Measured values reported in the RNAGym collection of RNA variant scans (doi:10.1073/pnas.2313332121).
# This sample holds only a part of the variants without activity.
# B1: TPR 5TU (parent)
# chain: GGAUCUUCUCGAUCUAACAAAAAAGACAAAUCUGCCACAAAGCUUGAGAGCAUCUUCGGAUGCAGAGGCGGCAGCCUUCGGUGGCGCGAUAGCGCCAACGUUCUCAACUAUGACACGCAAAACGCGUGCUCCGUUGAAUGGAGUUUAUCAUG
# Variants of: B1
# Test: polymerase ribozyme fitness, log enrichment relative to wild type (log ratio); higher = more active; in vitro selection for triplet polymerase activity
# Outline: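 Genotype fitness is the logarithm of its enrichment divided by wild-type enrichment, using inverse-variance-weighted averages of replicates. That logarithm is base 2. Enrichment was measured by Illumina sequencing of input and output libraries from one triplicate in vitro selection round, with frozen incubation at −7 °C, on PCR-built, transcribed mutant libraries of each subunit of a heterodimeric triplet polymerase ribozyme, retaining genotypes with ≥10 input reads and ≥1 read per output.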
row,Variant,polymerase ribozyme fitness (log ratio)
1,A29C,-3.73
2,A29C A49U A52C C54A A89C C123A U135G G140C,≤ -4.2
3,A28U G48U,≤ -4.2
4,A28U U61C G68A G86A A89U G117C,≤ -4.2
5,A28U C93U C118U A121G,≤ -4.2
6,A28U G83C G92U C96U,≤ -4.2
7,A29C A49U A91U C118G C149A,≤ -4.2
8,A28U C57U G84U G94A A98U C116A A147C,≤ -4.2
9,A28U A40C C75G C87A C95U C105G A121U,≤ -4.2
10,A28U A52G C85U G88A C95G U109G,≤ -4.2
11,A28U A66C C72U A91C C114U,≤ -4.2
12,A29C G58A G83A C118U,≤ -4.2
13,A28U C32G A41U A73G C85G G88U G136A,≤ -4.2
14,A29C C96G,-4.15
15,A28U G65U U82G U101G C103A G152U,≤ -4.2
16,A29C A41U G83A A138U,≤ -4.2
17,A29C A41G A97C A122U,≤ -4.2
18,A28G U56A,-3.7
19,A28U A37C U55A A106C U134G G140A,≤ -4.2
20,A28G C43U A113U G117A A138G,≤ -4.2
21,A29C C95A G117U G126U G141C G143C,≤ -4.2

row,Variant,polymerase ribozyme fitness (log ratio)
1,A28U C32U A39U G58U C87U,≤ -4.2
2,A29C G59A G94U U102A A106G G141A,≤ -4.2
3,A28U C54G C72U,≤ -4.2
4,A28G G83C,-4.1
5,A28U U53G A66G C69A C79G G94C C108G C129U A137U,≤ -4.2
6,A28U A37C C79U C87U,-3.89
7,A28U G48A G74C C96U C131A,≤ -4.2
8,A28U A52C A97U A137U U139C,≤ -4.2
9,A28G C75G G88A U139G G141C,-3.97
10,A28U A66C G83U A122G,-4.16
11,A28U A29G A30U U61A G80C C93A A113U G140U G141A,≤ -4.2
12,A28U A49G C54A C93U U144C,≤ -4.2
13,A28U C54U C76A C114U,-3.97
14,A28U A49C C103G,≤ -4.2
15,A28U G50A C85G,≤ -4.2
16,A28U G42C A52C G100C G117C,≤ -4.2
17,A28U G74A C85U A91U,≤ -4.2
18,A28U C79A A91U C108G U130G G143C,≤ -4.2
19,A28U G50C G83C A110C,≤ -4.2
20,A29C A52G G83C A106C,≤ -4.2
21,A28G U55A,-2.49

row,Variant,polymerase ribozyme fitness (log ratio)
1,A28U U53A G81C C95G A107U U139A,≤ -4.2
2,A28U A40U G48A A119U U127C U146G,≤ -4.2
3,A29C A52C U53A C54U C75G C129A,≤ -4.2
4,A28G G42C C43A U55A,≤ -4.2
5,A28U G58U C79G G92U,≤ -4.2
6,A28G U55G G58C G88C G140U,≤ -4.2
7,A28U A49U U139G,≤ -4.2
8,A28G G140A,-4.13
9,A28U A73G,≤ -4.2
10,A28U A29U G65A C95G C105G U111G A137C G152C,≤ -4.2
11,A29C G58C,-3.97
12,A29C G58U,-4.16
13,A28U A73U A91G C125A A137C,≤ -4.2
14,A28U A30C U53G A64U C118U,≤ -4.2
15,A29C G50C C114U,≤ -4.2
16,A28U G50C C76U C85U C103A C118U U144G,≤ -4.2
17,A28G U44A G83C A147G,≤ -4.2
18,A29C A40U A41C G84A G141A,≤ -4.2
19,A29C G94A A110U G124A A147U,≤ -4.2
20,A29C C57A G68A G88C C114U G117C A122G,≤ -4.2
21,A29C A37U G133A,≤ -4.2

row,Variant,polymerase ribozyme fitness (log ratio)
1,A28G G34A G83C C118G,≤ -4.2
2,A28U C54U,-3.76
3,A28U G62A G65A G94A G136A,≤ -4.2
4,A28U C72U,≤ -4.2
5,A28U G42C U44C C75G C96A A115G,≤ -4.2
6,A28U A64G A66U A73U G81U C95U C114U C149A,≤ -4.2
7,A28U G68U C99U A110G,≤ -4.2
8,A29C C54U C85U,≤ -4.2
9,A28U U56A G81A C95U,≤ -4.2
10,A28U,-3.38
11,A29C C51G C57G G92C A107C A110C G124A U145A U151G,≤ -4.2
12,A29C G74C,≤ -4.2
13,A28U G50A U55C U139G,≤ -4.2
14,A28U A41U C79G G86A G136A G152A,≤ -4.2
15,A28G C93U C105G,≤ -4.2
16,A28G U44G A91U C99U,≤ -4.2
17,A28U C75U G84U G86A C93U A106G A113U,≤ -4.2
18,A28G U53A,-3.62
19,A29C U31G C87A U139G,≤ -4.2
20,A28G C32U G86C A115G U144G,≤ -4.2
